Assays:
Details in all cases: both partners purified
[1] = target: T1, tag free LigB12 (amino acids 1,047–1,119 in LigB) (L. interrogans serovar Pomona); assay: SPR; Biacore 3000; tag free LigB12 immobilised on CM5 (about 1,000 RU); HTE truncates 0 to 5 μM injected in PBS at 30 μL/min, 25°C; 1:1 Langmuir model
T1 construct: LigB, 12th Ig-like domain, amino acids 1,047–1,119 in LigB; from pET28-SUMO; also called wild-type LigB12; LigB12 WT; source: E. coli Rosetta, purified (Ni-NTA, Ulp-1 digestion, second Ni-NTA, size exclusion)

[2] = target: T2, GST tagged LigB4 (amino acids 307–403 in LigB) (L. interrogans serovar Pomona); assay: ELISA; HTE17-20, HTE20, HTE20N, HTE20C or BSA coated (1 μM/well); GST tagged LigB4 or LigB12 titrated 0 to 10 μM, 1 h at 37°C; HRP anti-GST; KD from a saturation fit of OD630
T2 construct: Leptospira immunoglobulin-like protein B (LigB), 4th Ig-like domain, amino acids 307–403 in LigB; constructed into pGEX-6P-1 and pGEX-4T-2; also called GST-LigB4; 4th domain of LigB; source: E. coli Rosetta, purified (glutathione agarose)

[3] = target: T3, GST tagged LigB12 (amino acids 1,047–1,119 in LigB) (L. interrogans serovar Pomona); assay: as above
T3 construct: LigB, 12th Ig-like domain, amino acids 1,047–1,119 in LigB; constructed into pGEX-6P-1 and pGEX-4T-2; also called GST-LigB12; 12th domain of LigB; source: E. coli Rosetta, purified (glutathione agarose)

B1: HTE17-20 (17th to 20th exon of human tropoelastin) (domain or fragment)
chain: GVGTPAAAAAAAAAAKAAKYGAAAGLVPGGPGFGPGVVGVPGAGVPGVGVPGAGIPVVPGAGIPGAAVPGVVSPEAAAKAAAKAAKYGARPGVGVGGIPTYGVGAGGFPGFGVGVGGIPGVAGVPGVGGVPGVGGVPGVGIS
[1]
  Kd: 850 nM
  koff: 0.0011 s⁻¹
  kon: 1300 M⁻¹ s⁻¹
[2]
  Kd: 780 nM
[3]
  Kd: 780 nM

— publication PMC5422739, “Leptospira Immunoglobulin-Like Protein B Interacts with the 20th Exon of Human Tropoelastin Contributing to Leptospiral Adhesion to Human Lung Cells” (Frontiers in Cellular and Infection Microbiology, 2017)
